Read-outs that look alike come from different tables or passages of the source. One block for each binder: values may come before it.
How the values were obtained:
[1] = biological target: T1, HER2 on the surface of HER2 overexpressing cancer cells (BT474) (human, UniProt P04626 23-1255); test: flow cytometry, dissociation from BT474 cells in the presence of a competing DARPin (FIG. 18A)
T1 construct: whole, on cells; also called ErbB2; HER2/Neu
Procedure: Corresponding to 100 μl cell suspension, samples were washed twice in 1 ml PBS (0.2% NaN₃, 1% BSA) and centrifuged at 600 g for 30 sec at room temperature. Cells were resuspended in 1 ml PBS (0.2% NaN₃, 1% BSA) containing 100 nM of equivalent unlabeled binding agent. The dissociation reaction was incubated for the indicated times (15, 30, 60, 120, 180 and 240 min) at room temperature while continuously stirring in the dark. Dissociation was stopped by placing the cell pellets on ice. Each sample was washed once with 1 ml cold PBS.

[2] = biological target: T2, HER2 (form used in the assay not stated) (human, UniProt P04626 23-652, limits assumed); test: method not stated
T2 construct: also called ErbB2

[3] = biological target: T2, HER2 (form used in the assay not stated); test: method not stated; remark: listed apart in the source
[4] = biological target: T1, HER2 on the surface of HER2 …; test: flow cytometry on BT474 cells, Alexa488-labelled agent

off-rate, times lower than monovalent G3 [1]: 10 fold
B1: 9_26-(G4S)4-G3 (designed binder)
chain: MRGSHHHHHHGSDLGKKLLEAARAGQDDEVRILMANGADVNAKDFYGITPLHLAAAYGHLEIVEVLLKHGADVNAHDWNGWTPLHLAAKYGHLEIVEVLLKHGADVNAIDNAGKTPLHLAAAHGHLEIVEVLLKYGADVNAQDKFGKTAFDISIDNGNEDLAEILQKLGGGGSGGGGSGGGGSGGGGSRSDLGKKLLEAARAGQDDEVRILMANGADVNAKDEYGLTPLYLATAHGHLEIVEVLLKNGADVNAVDAIGFTPLHLAAFIGHLEIAEVLLKHGADVNAQDKFGKTAFDISIGNGNEDLAEILQKLN
notes: also called 6_20_G

off-rate, times lower than monovalent G3 [1]: 10 fold
B2: 9_29-(G4S)4-G3 (designed binder)
chain: MRGSHHHHHHGSDLGKKLLEAARAGQDDEVRILMANGADVNAHDFYGITPLHLAANFGHLEIVEVLLKHGADVNAFDYDNTPLHLAADAGHLEIVEVLLKYGADVNASDRDGHTPLHLAAREGHLEIVEVLLKNGADVNAQDKFGKTAFDISIDNGNEDLAEILQKLGGGGSGGGGSGGGGSGGGGSRSDLGKKLLEAARAGQDDEVRILMANGADVNAKDEYGLTPLYLATAHGHLEIVEVLLKNGADVNAVDAIGFTPLHLAAFIGHLEIAEVLLKHGADVNAQDKFGKTAFDISIGNGNEDLAEILQKLN
notes: also called 9_20_G

Kd [2]: 3.8 nM
koff [2]: 0.0008 s⁻¹
kon [2]: 200000 M⁻¹ s⁻¹
Kd [3]: 1 nM
Kd [4]: 33.5 nM
koff [4]: 0.00221 s⁻¹
kon [4]: 69000 M⁻¹ s⁻¹
B3: DARPin 929 (designed binder)
chain: MRGSHHHHHHGSDLGKKLLEAARAGQDDEVRILMANGADVNAHDFYGITPLHLAANFGHLEIVEVLLKHGADVNAFDYDNTPLHLAADAGHLEIVEVLLKYGADVNASDRDGHTPLHLAAREGHLEIVEVLLKNGADVNAQDKFGKTAFDISIDNGNEDLAEILQKLN
